Values of other authors in article PMC9659328.

Biological target: thrombin (Homo sapiens) (UniProt P00734)

Kd: 2 nM
Substance: thrombomodulin (from UniProt P07204)
